In series [1] the target is T1, PrimPol1-363 (NTD);PrimPol363-560 (CTD) (Homo sapiens;Homo sapiens, UniProt Q96LW4;Q96LW4 1-363;363-560, |).
T1 sequence 1: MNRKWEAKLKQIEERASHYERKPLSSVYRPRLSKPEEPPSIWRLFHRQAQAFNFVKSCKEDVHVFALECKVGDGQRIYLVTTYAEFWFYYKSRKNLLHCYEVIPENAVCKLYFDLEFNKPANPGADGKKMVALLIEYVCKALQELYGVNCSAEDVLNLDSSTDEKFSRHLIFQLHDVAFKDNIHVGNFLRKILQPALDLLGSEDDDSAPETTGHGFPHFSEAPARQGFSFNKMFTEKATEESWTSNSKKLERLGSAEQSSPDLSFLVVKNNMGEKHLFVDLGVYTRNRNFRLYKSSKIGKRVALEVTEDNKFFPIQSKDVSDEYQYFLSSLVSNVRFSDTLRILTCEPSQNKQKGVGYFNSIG
T1 sequence 2: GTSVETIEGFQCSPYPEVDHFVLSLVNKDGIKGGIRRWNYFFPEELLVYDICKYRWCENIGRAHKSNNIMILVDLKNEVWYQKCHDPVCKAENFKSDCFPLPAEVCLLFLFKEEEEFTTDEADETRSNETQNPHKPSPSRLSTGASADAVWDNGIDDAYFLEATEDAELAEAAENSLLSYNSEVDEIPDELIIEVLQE
Nature of the series: EMSA; 1 mM Mn2+; separate NTD and CTD mixed; EMSA: 40 mM HEPES pH 7.0, 50 mM KCl, 1 mM DTT, 5% glycerol, 0.1 mg/ml BSA, 1 mM MnCl2, 300 nM DNA, 24 C 20 min then ice (RPA assays: 50 nM DNA, 25 nM RPA, 8 C); 5% native PAGE, 0.5x Tris-glycine pH 8.3, 4 C. To be noted: protein: recombinant;recombinant, tags: N-terminal SUMO-HIS10;N-terminal SUMO-HIS10, copies: 1;1.

For series [2], the target named is T2, PrimPol1-363 (NTD) (Homo sapiens, UniProt Q96LW4 1-363).
T2 sequence: T1 sequence 1
Nature of the series: EMSA; 1 mM Mn2+, 1-3 uM protein; EMSA: 40 mM HEPES pH 7.0, 50 mM KCl, 1 mM DTT, 5% glycerol, 0.1 mg/ml BSA, 1 mM MnCl2, 300 nM DNA, 24 C 20 min then ice (RPA assays: 50 nM DNA, 25 nM RPA, 8 C); 5% native PAGE, 0.5x Tris-glycine pH 8.3, 4 C. The note with it: protein: recombinant; tags: N-terminal SUMO-HIS10; label: 5' Cy5.

For series [3], the target named is T3, PrimPol363-560 (CTD) (Homo sapiens, UniProt Q96LW4 363-560).
T3 sequence: T1 sequence 2
The series is described as above. The note with it: protein: recombinant; tags: N-terminal SUMO-HIS10; label: 5' Cy5.

Series [4] has as its target T4, PrimPol1-475 (RBM deleted) (Homo sapiens, UniProt Q96LW4 1-475).
T4 sequence: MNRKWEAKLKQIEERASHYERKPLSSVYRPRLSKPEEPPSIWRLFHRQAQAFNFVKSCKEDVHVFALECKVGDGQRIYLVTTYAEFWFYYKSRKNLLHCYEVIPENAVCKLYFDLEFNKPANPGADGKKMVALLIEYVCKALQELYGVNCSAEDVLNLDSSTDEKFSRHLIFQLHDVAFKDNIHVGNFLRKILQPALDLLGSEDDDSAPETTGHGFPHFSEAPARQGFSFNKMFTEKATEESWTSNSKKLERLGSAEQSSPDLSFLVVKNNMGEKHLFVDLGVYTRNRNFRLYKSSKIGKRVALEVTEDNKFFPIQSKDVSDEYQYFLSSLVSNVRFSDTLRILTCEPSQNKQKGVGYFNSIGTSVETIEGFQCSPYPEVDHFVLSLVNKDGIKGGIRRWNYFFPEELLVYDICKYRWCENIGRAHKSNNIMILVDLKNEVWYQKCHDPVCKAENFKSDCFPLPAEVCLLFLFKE
Kind of series: EMSA; 1 mM Mn2+, 1 mM ATP, 200 uM dNTPs, 8 C; EMSA: 40 mM HEPES pH 7.0, 50 mM KCl, 1 mM DTT, 5% glycerol, 0.1 mg/ml BSA, 1 mM MnCl2, 300 nM DNA, 24 C 20 min then ice (RPA assays: 50 nM DNA, 25 nM RPA, 8 C); 5% native PAGE, 0.5x Tris-glycine pH 8.3, 4 C. To be noted: protein: recombinant; tags: N-terminal SUMO-HIS10; label: 32P. In general terms: Mobility shift assays separate free from complexed probe on a gel.

The target of series [5] is T5, PrimPol WT (Homo sapiens, UniProt Q96LW4 1-560).
T5 sequence: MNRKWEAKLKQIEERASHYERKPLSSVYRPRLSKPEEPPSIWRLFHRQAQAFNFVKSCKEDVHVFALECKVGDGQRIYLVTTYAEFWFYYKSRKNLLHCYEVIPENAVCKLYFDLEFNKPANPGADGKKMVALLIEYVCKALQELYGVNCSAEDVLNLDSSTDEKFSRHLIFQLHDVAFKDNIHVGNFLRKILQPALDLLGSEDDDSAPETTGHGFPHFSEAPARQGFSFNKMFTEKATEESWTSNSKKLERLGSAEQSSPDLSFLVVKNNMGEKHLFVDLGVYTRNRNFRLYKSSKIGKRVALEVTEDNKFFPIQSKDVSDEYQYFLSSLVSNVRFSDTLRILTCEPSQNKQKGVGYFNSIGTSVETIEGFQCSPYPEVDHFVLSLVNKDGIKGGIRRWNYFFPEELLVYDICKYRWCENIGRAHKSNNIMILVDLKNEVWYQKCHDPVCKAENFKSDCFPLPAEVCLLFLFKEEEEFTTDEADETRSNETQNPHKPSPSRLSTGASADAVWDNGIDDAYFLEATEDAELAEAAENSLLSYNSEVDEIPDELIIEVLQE
Described as above. To be noted: protein: recombinant; tags: N-terminal SUMO-HIS10; label: 32P.

Series [6] has as its target PrimPol WT;RPA (Homo sapiens;Homo sapiens, UniProt Q96LW4;P27694;P15927;P35244 1-560;1-616;1-270;1-121, |). Kind of series: EMSA; PrimPol added to preformed RPA:DNA; 1 mM Mn2+, ATP, dNTPs, 8 C; EMSA: 40 mM HEPES pH 7.0, 50 mM KCl, 1 mM DTT, 5% glycerol, 0.1 mg/ml BSA, 1 mM MnCl2, 300 nM DNA, 24 C 20 min then ice (RPA assays: 50 nM DNA, 25 nM RPA, 8 C); 5% native PAGE, 0.5x Tris-glycine pH 8.3, 4 C. The note with it: protein: recombinant;recombinant; tags: N-terminal SUMO-HIS10;; copies: 1;1;1;1; label: 32P.

In series [7] the target is T4, PrimPol1-475 (RBM deleted). Kind of series: EMSA; 1 mM Mn2+; EMSA: 40 mM HEPES pH 7.0, 50 mM KCl, 1 mM DTT, 5% glycerol, 0.1 mg/ml BSA, 1 mM MnCl2, 300 nM DNA, 24 C 20 min then ice (RPA assays: 50 nM DNA, 25 nM RPA, 8 C); 5% native PAGE, 0.5x Tris-glycine pH 8.3, 4 C. To be noted: protein: recombinant; tags: N-terminal SUMO-HIS10; label: Cy5 at 5' of template; template 5' overhang 1 nt, 3' overhang 11 nt.

The target in series [8] is T5, PrimPol WT. Described as above. To be noted: protein: recombinant; tags: N-terminal SUMO-HIS10; label: Cy5 at 5' of template; template 5' overhang 1 nt, 3' overhang 11 nt.

Usually Kd stands for the concentration at which binding is half-saturated.

Sequence of PrimPol WT;RPA (P27694 whole entry, chain 2 of 3): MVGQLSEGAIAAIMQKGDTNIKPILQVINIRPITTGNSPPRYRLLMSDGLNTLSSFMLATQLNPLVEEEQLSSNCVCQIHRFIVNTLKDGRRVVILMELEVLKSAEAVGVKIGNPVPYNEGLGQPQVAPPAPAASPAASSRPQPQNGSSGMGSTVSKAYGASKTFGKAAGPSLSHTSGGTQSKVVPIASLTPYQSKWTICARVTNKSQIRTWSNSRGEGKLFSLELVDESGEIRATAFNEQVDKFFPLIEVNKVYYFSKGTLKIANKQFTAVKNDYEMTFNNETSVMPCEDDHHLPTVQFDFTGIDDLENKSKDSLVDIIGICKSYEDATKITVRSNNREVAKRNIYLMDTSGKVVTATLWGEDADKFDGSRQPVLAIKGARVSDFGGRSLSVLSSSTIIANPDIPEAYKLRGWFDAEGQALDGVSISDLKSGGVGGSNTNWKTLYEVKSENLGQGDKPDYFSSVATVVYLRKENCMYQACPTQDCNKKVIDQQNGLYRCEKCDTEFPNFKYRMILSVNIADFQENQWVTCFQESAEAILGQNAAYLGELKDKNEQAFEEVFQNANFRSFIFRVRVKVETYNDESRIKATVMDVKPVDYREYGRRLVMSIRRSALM
Sequence of PrimPol WT;RPA (P15927 whole entry, chain 3 of 3): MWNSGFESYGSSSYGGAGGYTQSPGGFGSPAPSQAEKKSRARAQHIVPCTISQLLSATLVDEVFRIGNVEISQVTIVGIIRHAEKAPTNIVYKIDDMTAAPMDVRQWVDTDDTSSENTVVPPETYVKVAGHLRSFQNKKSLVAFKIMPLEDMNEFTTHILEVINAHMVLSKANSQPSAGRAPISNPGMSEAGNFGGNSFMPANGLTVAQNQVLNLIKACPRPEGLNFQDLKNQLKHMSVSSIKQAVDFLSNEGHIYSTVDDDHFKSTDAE
Sequence of PrimPol WT;RPA (P35244 whole entry, chain 4 of 3): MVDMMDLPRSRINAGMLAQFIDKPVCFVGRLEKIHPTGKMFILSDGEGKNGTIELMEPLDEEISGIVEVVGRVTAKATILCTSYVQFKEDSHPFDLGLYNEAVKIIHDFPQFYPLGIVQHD

B1: Template-55/Primer-18 (dsDNA)
DNA 1: GACTACATTTCATCTGGCTTGGGCTTCATCGTTGTCGCAGACCTGGTGGATACCG
DNA 2: CGGTATCCACCAGGTCTG
For B1, the binding result in series [1] (label: 5' 32P on Primer-18, template 5' overhang 37 nt) was “binds”.
As for AAAAAAAAAACCTGAAAAAAAAAA (ssDNA) [Cy5-Acctg24], the values for the binding result in series [1] (label: 5' Cy5), in series [2] and in series [3] were “no binding”, “binds” and “no binding”, respectively.

B2: Acctg55 (ssDNA)
DNA: AAAAAAAAAAAAAAAAAAAAAAAAAAAAAAAAAAAAAAAAACCTGAAAAAAAAAA
With B2, the binding result in series [4], in series [5] and in series [6] was “binds” each time.

B3: p-p-p-12/Cy5-Acctg24 (mixed)
DNA 1: AAAAAAAAAACCTGAAAAAAAAAA
DNA 2: AGGTTTTTTTTT
modifications: primer 5'-triphosphate; primer nt 1 is ribo-A, rest DNA
Regarding B3, the Kd stood at 90 ± 10 nM in series [7] and 490 ± 130 nM in series [8].
